No end group written: not given here.

The values that follow come from US20220064274A1 (SHANGHAI YILE BIOTECHNOLOGY, published 2022).

One test has as its target T1, GST-huBDNFpro4.
T1 construct: Printed on the sheet without the E ('GST-huBDNFpro4'); also called E4; GST-human proBDNF-E4 peptide
T1 peptide: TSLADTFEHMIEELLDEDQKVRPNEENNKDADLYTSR
Put plainly: ELISA, GST fusion protein coated, absorbance at 450 nm. The text has this: (§1) The five peptides were fused with GST and expressed, and then purified. The binding of antibodies 1D3 and 2H8 was detected by ELISA.
Background: ELISA stands for enzyme-linked immunosorbent assay.

The target of a further test is T2, LL peptide (human, also: biotinylated, position not given here).
T2 construct: Synthetic; also called Biotinylated LL peptide
T2 peptide: LLFLLEEYKNYL
The experiment in a line: ELISA, biotinylated peptide. An excerpt:
(§2) The E5 peptide was further divided into three equal peptide segments, each comprising 12 amino acids, namely VP peptide ([…], SEQ ID NO: 33), LL peptide ([…], SEQ ID NO: 34), DH Peptide ([…], SEQ ID NO: 35). Biotinylated VP peptide, LL peptide and DH peptide were synthesized in vitro by GL Biochemical (Shanghai) Ltd. and the binding of antibodies was detected by ELISA.

In a further test the target is T3, DH Peptide (human, also: biotinylated, position not given here).
T3 construct: Synthetic; also called polypeptide DH; Biotinylated DH peptide
T3 peptide: DAANMSMRVRRH
The experiment in a line: ELISA, biotinylated peptide.
From the text: as §2

The target in a further test is T4, VP peptide (human, also: biotinylated, position not given here).
T4 construct: Synthetic; also called Biotinylated VP peptide
T4 peptide: VMLSSQVPLEPP
Put plainly: ELISA, biotinylated peptide.
From the text: as §2

Test [1] concerns the target T5, GST-human proBDNF-E5 peptide (human).
T5 construct: not shown: GST (glutathione S-transferase) fusion partner
T5 chain: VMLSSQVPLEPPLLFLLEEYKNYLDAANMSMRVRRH
The experiment in a line: ELISA on GST fusion proteins.
From the text: as §1

The target in test [2] is T6, human proBDNF precursor protein (human, UniProt P23560 19-247).
T6 construct: also called human proBDNF precursor recombinant protein
T6 sequence (looked up): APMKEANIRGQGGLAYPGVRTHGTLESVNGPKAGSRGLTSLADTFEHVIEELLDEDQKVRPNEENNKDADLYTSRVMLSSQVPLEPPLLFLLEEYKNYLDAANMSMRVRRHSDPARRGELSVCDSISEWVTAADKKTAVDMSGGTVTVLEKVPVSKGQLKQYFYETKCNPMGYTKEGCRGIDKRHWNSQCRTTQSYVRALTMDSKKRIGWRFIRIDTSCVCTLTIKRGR
Put plainly: SPR, Biacore T200, capture method, human proBDNF precursor protein at 0.25-8 nM. The method, then:
The affinity and kinetic parameters of the 1D3 and 2H8 monoclonal antibodies were measured by the capture method using the Biacore T200 system (purchased from GE). The operation is referred to the instruction. The adopted concentrations of human proBDNF precursor protein were 0.25nM, 0.5nM, 1nM, 2nM, 4nM and 8nM, respectively. The Biacore T200 evaluation software was used to evaluate the obtained action curve and to calculate the KD value of affinity . FIG. 1A and FIG. 1B respectively show the kinetic curves of monoclonal antibodies 1D3 and 2H8 in the Biacore affinity determination experiment.
(In SPR one partner is held on a chip, and binding of the other changes the refractive index at the surface.)

Test [3] addresses T7, GST-human proBDNF-E2 peptide (human, UniProt P23560 76-129).
T7 construct: not shown: GST (glutathione S-transferase) fusion partner
T7 sequence: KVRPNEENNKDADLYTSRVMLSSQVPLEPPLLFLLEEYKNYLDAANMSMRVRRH
The experiment in a line: ELISA on GST fusion proteins.
From the text: as §1

B1: 2H8 Monoclonal antibody (antibody, V domains shown)
VH: EVQLVETGGGLVQPGGSLRLSCAASGFTFSSYGMHWVRQAPGKGLEWVSVISGSGDSTYYAESVKGRFTISRDNARNTVYLQMNSLRAEDTAVYYCASGILTGYVFDYWGKGTMVTVSS
VL: DVVMTQSPLSLPVTLGQPASISCRSSQSLVSNDGNTYLNWFQQRPGQPPRRLIYMVSKWDSGVPDRFSGSGSGTDFTLRISRVEAEDVGVYYCMQSTHWPPTFGGGTKLEIKR
notes: also called recombinant monoclonal antibody 2H8
Take B1: the binding result with GST-huBDNFpro4 was “no binding”; in the test with LL peptide, “no binding”; in the test with DH Peptide, “binds”; in the test with VP peptide, “no binding”; in test [1], “binds”. Further, binding in test [2] was characterised by a dissociation constant (Kd) of 1.91 nM. Further, in test [2], the koff (usually the rate constant with which the complex falls apart) was 0.00594 s⁻¹. Besides, in test [2], the kon (usually a measure of how fast the partners come together) worked out at 3.1e+06 M⁻¹ s⁻¹.

B2: 1D3 Monoclonal antibody (antibody, V domains shown)
VH: QVQLVESGGGLIQPGGSMRLSCAASGFSLSGYDMHWVRQIAGKGLEWVAGLGMEGDSYYSASVKGRFTISRQDAKNSLYLEMKDLGGGDTAVYYCLRDVHGFDVWGQGTTVTVSS
VL: DVVMTQSPLSLPVTPGEPASISCRSSQSLLYSNGYTYLDWYLQRPGQSPQLLIYMGSNRASGVPDRFSGSGSGTDFTLKISRVEAEDVGVYYCMQALQTPLTFGGGTKLEIKR
notes: also called recombinant monoclonal antibody 1D3; fully human monoclonal antibody 1D3
On to B2, for which the binding result with GST-huBDNFpro4 is on record as “no binding”; with LL peptide, “no binding”; with DH Peptide, “binds”; with VP peptide it was “no binding”; in test [3] it was “binds”; in test [1], “binds”.
